T1: FGFR1-Fc (Z03223, Genscript) (UniProt P11362 22-376)
T1 construct: fibroblast growth factor receptor 1 part of a bought Fc fusion; also called FGFR1 homodimer; FGFR1/FGFR1; source: bought: Genscript (Z03223)
T1 sequence (looked up): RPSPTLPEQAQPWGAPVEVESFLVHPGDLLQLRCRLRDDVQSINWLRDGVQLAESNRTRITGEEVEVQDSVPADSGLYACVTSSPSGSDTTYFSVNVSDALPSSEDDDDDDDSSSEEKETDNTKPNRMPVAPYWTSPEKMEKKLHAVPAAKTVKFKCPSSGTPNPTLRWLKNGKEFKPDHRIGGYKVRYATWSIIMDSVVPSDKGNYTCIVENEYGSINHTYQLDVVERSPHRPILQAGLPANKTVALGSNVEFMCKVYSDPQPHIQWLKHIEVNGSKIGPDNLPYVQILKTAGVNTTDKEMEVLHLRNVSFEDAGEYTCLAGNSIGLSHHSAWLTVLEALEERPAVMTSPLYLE

B1: Human VEGF-B167 (ligand, UniProt P49765-2 22-188, looked up)
chain: PVSQPDAPGHQRKVVSWIDVYTRATCQPREVVVPLTVELMGTVAKQLVPSCVTVQRCGGCCPDDGLECVPTGQHQVRMQILMIRYPSSQLGEMSLEEHSQCECRPKKKDSAVKPDSPRPLCPRCTQHHQRPDPRTCRCRCRRRSFLRCQGRGLELNPDTCRCRKLRR
notes: UniProt P49765 is printed for the VEGF-B167 peptides; Bought recombinant protein; source: bought: PeproTech (100-20B)
B2: FGFR1 ECD-L-VEGFR1 ECD (other)
chain: RPSPTLPEQAQPWGAPVEVESFLVHPGDLLQLRCRLRDDVQSINWLRDGVQLAESNRTRITGEEVEVQDSVPADSGLYACVTSSPSGSDTTYFSVNVSDALPSSEDDDDDDDSSSEEKETDNTKPNRMPVAPYWTSPEKMEKKLHAVPAAKTVKFKCPSSGTPNPTLRWLKNGKEFKPDHRIGGYKVRYATWSIIMDSVVPSDKGNYTCIVENEYGSINHTYQLDVVERSPHRPILQAGLPANKTVALGSNVEFMCKVYSDPQPHIQWLKHIEVNGSKIGPDNLPYVQILKTAGVNTTDKEMEVLHLRNVSFEDAGEYTCLAGNSIGLSHHSAWLTVLEALEERPAVMTSPLYLESKLKDPELSLKGTQHIMQAGQTLHLQCRGEAAHKWSLPEMVSKESERLSITKSACGRNGKQFCSTLTLNTAQANHTGFYSCKYLAVPTSKKKETESAIYIFISDTGRPFVEMYSEIPEIIHMTEGRELVIPCRVTSPNITVTLKKFPLDTLIPDGKRIIWDSRKGFIISNATYKEIGLLTCEATVNGHLYKTNYLTHRQTNTIIDVQISTPRPVKLLRGHTLVLNCTATTPLNTRVQMTWSYPDEKNKRASVRRRIDQSNSHANIFYSVLTIDKMQNKDKGLYTCRVRSGPSFKSVNTSVHIYDKAFITVKHRKQQVLETVAGKRSYRLSMKVKAFPSPEVVWLKDGLPATEKSARYLTRGYSLIIKDVTEEDAGNYTILLSIKQSNVFKNLTATLIVNVKPQIYEKAVSSFPDPALYPLGSRQILTCTAYGIPQPTIKWFWHPCNHNHSEARCDFCSNNEESFILDADSNMGNRIESITQRMAIIEGKNKMASTLVVADSRISGIYICIASNKVGTVGRNISFYITDVPNGFHVNLEKMPTEGEDLKLSCTVNKFLYRDVTWILLRTVNNRTMHYSISKQKMAITKEHSITLNLTIMNVSLQDSGTYACRARNVYTGEEILQKKEITIRDQEAPYLLRNLSDHTVAISSSTTLDCHANGVPEPQITWFKNNHKIQQEPGIILGPGSSTLFIERVTEEDEGVYHCKATNQKGSVESSAYLTVQGTSDKSNLE
B3: VEGFR1 ECD-L-FGFR1 ECD (other)
chain: SKLKDPELSLKGTQHIMQAGQTLHLQCRGEAAHKWSLPEMVSKESERLSITKSACGRNGKQFCSTLTLNTAQANHTGFYSCKYLAVPTSKKKETESAIYIFISDTGRPFVEMYSEIPEIIHMTEGRELVIPCRVTSPNITVTLKKFPLDTLIPDGKRIIWDSRKGFIISNATYKEIGLLTCEATVNGHLYKTNYLTHRQTNTIIDVQISTPRPVKLLRGHTLVLNCTATTPLNTRVQMTWSYPDEKNKRASVRRRIDQSNSHANIFYSVLTIDKMQNKDKGLYTCRVRSGPSFKSVNTSVHIYDKAFITVKHRKQQVLETVAGKRSYRLSMKVKAFPSPEVVWLKDGLPATEKSARYLTRGYSLIIKDVTEEDAGNYTILLSIKQSNVFKNLTATLIVNVKPQIYEKAVSSFPDPALYPLGSRQILTCTAYGIPQPTIKWFWHPCNHNHSEARCDFCSNNEESFILDADSNMGNRIESITQRMAIIEGKNKMASTLVVADSRISGIYICIASNKVGTVGRNISFYITDVPNGFHVNLEKMPTEGEDLKLSCTVNKFLYRDVTWILLRTVNNRTMHYSISKQKMAITKEHSITLNLTIMNVSLQDSGTYACRARNVYTGEEILQKKEITIRDQEAPYLLRNLSDHTVAISSSTTLDCHANGVPEPQITWFKNNHKIQQEPGIILGPGSSTLFIERVTEEDEGVYHCKATNQKGSVESSAYLTVQGTSDKSNLERPSPTLPEQAQPWGAPVEVESFLVHPGDLLQLRCRLRDDVQSINWLRDGVQLAESNRTRITGEEVEVQDSVPADSGLYACVTSSPSGSDTTYFSVNVSDALPSSEDDDDDDDSSSEEKETDNTKPNRMPVAPYWTSPEKMEKKLHAVPAAKTVKFKCPSSGTPNPTLRWLKNGKEFKPDHRIGGYKVRYATWSIIMDSVVPSDKGNYTCIVENEYGSINHTYQLDVVERSPHRPILQAGLPANKTVALGSNVEFMCKVYSDPQPHIQWLKHIEVNGSKIGPDNLPYVQILKTAGVNTTDKEMEVLHLRNVSFEDAGEYTCLAGNSIGLSHHSAWLTVLEALEERPAVMTSPLYLE
B4: FGFR1 DI (domain or fragment)
chain: PTLPEQAQPWGAPVEVESFLVHPGDLLQLRCRLRDDVQSINWLRDGVQLAESNRTRITGEEVEVQDSVPADSGLYACVTSSPSGSDTTYFSVNVS

Assay [1] addresses B1. The assay is described as follows: SPR; VEGF-B immobilised at 3820 RU on CM5 (the FGF2 surface is not described); FGFR1 DI (18.75-600 nM), DII (3.125-100 nM), DIII (12.5-400 nM), DII-III (25-800 nM) flowed at 10 µl/min. For orientation: In SPR one partner is held on a chip, and binding of the other changes the refractive index at the surface.
The target in assay [2] is FGF2 (BFF-H4117, Acro Biosystems) (UniProt P09038). Described as above.
FGF2 (BFF-H4117, Acro Biosystems) (UniProt P09038), sequence (P09038 143-288): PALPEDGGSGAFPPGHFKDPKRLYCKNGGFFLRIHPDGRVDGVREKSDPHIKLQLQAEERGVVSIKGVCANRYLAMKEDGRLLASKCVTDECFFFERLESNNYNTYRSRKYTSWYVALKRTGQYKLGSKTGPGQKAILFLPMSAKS
The target of assay [3] is T1, FGFR1-Fc (Z03223, Genscript). The assay is described as follows: SPR; BIAcore 8000; VEGF-B, FGF2 or PlGF immobilised (5389, 1860, 4700 RU) on CM5 by amine coupling; FGFR1-Fc flowed at 12.5-400 nM, 30 µl/min; 1:1 binding model, KD = kd/ka. Particulars: both partners purified.
Assay [4] concerns the target B1. As to the kind of experiment: SPR; VEGF-B immobilised at 3820 RU on CM5 (the VEGF-C surface is not described); heterodimer proteins flowed at 1.875-60 nM, 10 µl/min. The note with it: both partners purified.
Assay [5] addresses T2, FGF2 (BFF-H4117, Acro Biosystems) (UniProt P09038 143-288).
T2 construct: fibroblast growth factor 2 (basic FGF); Immobilised on the CM5 chip for SPR; also called basic FGF; fibroblast growth factor 2; source: bought: Acro Biosystems (BFF-H4117)
As to the kind of experiment: SPR; VEGF-B immobilised at 3820 RU on CM5 (the FGF2 surface is not described); FGFR1 DI (18.75-600 nM), DII (3.125-100 nM), DIII (12.5-400 nM), DII-III (25-800 nM) flowed at 10 µl/min. The note with it: both partners purified.

T2 sequence (P09038 143-288): as above

Consider FGFR1 DII (domain or fragment), for which the dissociation constant (Kd) was found to be 101 nM in assay [1] and 71 nM in assay [2].

Consider FGFR1 DII-III (domain or fragment), for which the dissociation constant (Kd) turned out to be 49 nM in assay [1] and 63 nM in assay [2].

Regarding FGFR1 DIII (domain or fragment), the dissociation constant (Kd) in assay [1] came to 64 nM; in assay [2], 43 nM.

Regarding B1, the Kd in assay [3] is 17 nM.

B2 showed a Kd in assay [4] of 3.7 nM.

The molecule B3 showed a dissociation constant (Kd) in assay [4] of 1.4 nM.

For the molecule B4, the Kd worked out at 245 nM in assay [5] and 532 nM in assay [1] (both partners purified).

One may read the Kd as the equilibrium constant for the complex coming apart.

Source of the values: paper PMC10435562, “VEGF-B prevents excessive angiogenesis by inhibiting FGF2/FGFR1 pathway” (Signal Transduction and Targeted Therapy, 2023).
